In the supplement of paper PMC9170038:

Test system: MS2 coat protein
Test: apparent KD of MS2 coat protein; designed switch direction (-1 OFF switch, 1 ON switch): -1; higher = weaker reporter binding
Procedure, shortened: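 Designed RNA switches with common flanks were transcribed on Illumina chips by stalled E. coli RNA polymerase and titrated with SNAP-549-labelled MS2 coat protein, from 0.7 or 1.5 nM doubling to 3 µM, in Tris-HCl pH 7.5 buffer with KCl, MgCl2, BSA, DTT, tRNA and Tween-20. Steps lasted 0.8–1.5 h (lowest) to 10–20 min (highest). Titrations ran without input, with 200 uM small-molecule ligand, or with an oligonucleotide input. Normalised cluster fluorescence was curve-fitted, and apparent KD is the per-design median over clusters.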

[1] = input ligand: microRNA oligo, concentration not stated
[2] = Eterna round: R95, input ligand: FMN 200 uM
[3] = Eterna round: R95, input ligand: microRNA oligo, concentration not stated
[4] = Eterna round: R95, input ligand: none

For “CACCCUUCAGGAUAUACAUGAGGAUCACCCAUGUGUUCCAGCUAGGAAACUAGCAAAUGUAGAAGGGAAGGGUG [Mat - Exclusion 3 - JL Mod - D5] (Eterna round: R97, puzzle: Exclusion 3)”, the “apparent KD of MS2 coat protein” value (input ligand: FMN 200 uM) was 452 nM and the “apparent KD of MS2 coat protein” value (input ligand: none) was 108 nM.

“CACCGUAACAGAGGAUAUGAAACAUGAGGAUCACCCAUGUAAUAAAUGAGAAUUUCGAAUGUACCUCAGAAGGCUGAAACCGGC [Ostricism 82 - Jieux - Exclusion NG 2] (Eterna round: R96, puzzle: Exclusion NG 2)” was tested, and the “apparent KD of MS2 coat protein” value (input ligand: FMN 200 uM) was 56.8 nM, the “apparent KD of MS2 coat protein” value [1] was 31.9 nM and the “apparent KD of MS2 coat protein” value (input ligand: none) was 43 nM.

“CACCGUUACAGAGGAUAUCUUACAUGAGGAUCACCCAUGUAAUAAAUGAGAAUUUCGGAUGUAUGAGAGAAGGCUGGAAUCGGC [Ostricism 38 - Jieux - Exclusion NG 2] (Eterna round: R96, puzzle: Exclusion NG 2)” was tested, and the “apparent KD of MS2 coat protein” value [1] was 16.3 nM.

With “CACCGUUACAGAGGAUAUGGUACAUGAGGAUCACCCAUGUAAUAAAUGAGAAUUUCGGAUGUAUUCCAGAAGGCUGUAAUCGGC [Ostricism 65 - Jieux - Exclusion NG 2] (Eterna round: R96, puzzle: Exclusion NG 2)” the “apparent KD of MS2 coat protein” value (input ligand: FMN 200 uM) was 74.9 nM, the “apparent KD of MS2 coat protein” value [1] was 34.1 nM and the “apparent KD of MS2 coat protein” value (input ligand: none) was 53.5 nM.

In the case of “CACCGUUAGAGAGGAUAUCGUACAUGAGGAUCACCCAUGUAAUAAAUGAGAAUUUCGGAUGUAUGCGAGAAGGCUCGAAUCGGC [Ostracism 33 - Jieux - Exclusion NG 2] (Eterna round: R96, puzzle: Exclusion NG 2)”, the “apparent KD of MS2 coat protein” value [1] was 38.6 nM.

For “CACCUGAACACAGGAUAUCAUACAUGAGGAUCACCCAUGUAAUAAAUGAGAAUUUCGAAUGUAAUUGAGAAGGGUGGAUAAGGC [Ostricism 90 - Jieux - Exclusion NG 2] (Eterna round: R96, puzzle: Exclusion NG 2)”, the “apparent KD of MS2 coat protein” value (input ligand: FMN 200 uM) was 97.8 nM, the “apparent KD of MS2 coat protein” value [1] was 34.6 nM and the “apparent KD of MS2 coat protein” value (input ligand: none) was 41.1 nM.

With “CACCUGAACUCAGGAUAUCAUACAUGAGGAUCACCCAUGUAAUAAAUGAGAAUUUCGAAUGUAAUUGAGAAGGGAGAAUAAGGC [Ostricism 98 - Jieux - Exclusion NG 2] (Eterna round: R96, puzzle: Exclusion NG 2)” the “apparent KD of MS2 coat protein” value (input ligand: FMN 200 uM) was 88.8 nM, the “apparent KD of MS2 coat protein” value [1] was 33.8 nM and the “apparent KD of MS2 coat protein” value (input ligand: none) was 38.8 nM.

In the case of “CACCUGAAGUCAGGAUAUCAUACAUGAGGAUCACCCAUGUAAUAAAUGAGAAUUUCGAAUGUAAUUGAGAAGGGACAAUAAGGC [Ostricism 97 - Jieux - Exclusion NG 2] (Eterna round: R96, puzzle: Exclusion NG 2)”, the “apparent KD of MS2 coat protein” value (input ligand: FMN 200 uM) was 93.2 nM, the “apparent KD of MS2 coat protein” value [1] was 34 nM and the “apparent KD of MS2 coat protein” value (input ligand: none) was 44.2 nM.

For “CACCUGAGAGGAUAUACGUUGAUGUUAUGCUAUGGAAAGUUACAUGAGGAUCACCCAUGUAGAAGGCUCAGGUA [Eternabot (L2) Solution 48] (Eterna round: R97, puzzle: Exclusion 2)”, the “apparent KD of MS2 coat protein” value (input ligand: FMN 200 uM) was 75.4 nM and the “apparent KD of MS2 coat protein” value (input ligand: none) was 18.8 nM.

In the case of “CACUGGACAGGAUAUGUUCUUGAGCACUUGAGGAUCACCCAAGUCAUCAAGAACUCAGGCACAGAAGGGUUUAUGC [salish99_ex5_r4_012] (Eterna round: R97, puzzle: Exclusion 5)”, the “apparent KD of MS2 coat protein” value (input ligand: FMN 200 uM) was 24.7 nM and the “apparent KD of MS2 coat protein” value (input ligand: none) was 14 nM.

For “CACUGGACAGGAUAUGUUCUUGAGCACUUGAGGAUCACCCAAGUCAUCAAGAACUCAGGCACAGAAGGGUUUAUGG [salish99_ex5_r4_013] (Eterna round: R97, puzzle: Exclusion 5)”, the “apparent KD of MS2 coat protein” value (input ligand: FMN 200 uM) was 38.9 nM and the “apparent KD of MS2 coat protein” value (input ligand: none) was 16.9 nM.

For “CACUGGACAGGAUAUGUUCUUGAGCACUUGAGGAUCACCCAAGUCAUCAAGAACUCAGGCACAGAAGGGUUUAUGU [salish99_ex5_r4_014] (Eterna round: R97, puzzle: Exclusion 5)”, the “apparent KD of MS2 coat protein” value (input ligand: FMN 200 uM) was 44.5 nM and the “apparent KD of MS2 coat protein” value (input ligand: none) was 15.8 nM.

For “CAGAAACAUGAGGAUCACCCAUGUGAGGAUAUGAAAAAGAAAAGAAAAGAAAGAAGAAUCAGAAGGCACAAAGG [salish99-ex1_r3_081] (puzzle: Exclusion 1)”, the “apparent KD of MS2 coat protein” value [2] was 39.9 nM, the “apparent KD of MS2 coat protein” value [3] was 30.8 nM and the “apparent KD of MS2 coat protein” value [4] was 38.5 nM.

In the case of “CAGAACUGAGGAUAUACAUGAGGAUCACCCAUGUGUUCCAGCUAGGAGACUAGCAUAUGUAGAAGGCAGUUCUG [Mat - Exclusion 3 - JL Mod - D11] (Eterna round: R97, puzzle: Exclusion 3)”, the “apparent KD of MS2 coat protein” value (input ligand: FMN 200 uM) was 587 nM and the “apparent KD of MS2 coat protein” value (input ligand: none) was 359 nM.

“CAGAAGGGAGGAUAUACAUGACCGUUUUAAUGGUUUUUAGUACAUGAGGAUCACCCAUGUAGAAGGCCCGAACU [EX2 B.23] (Eterna round: R97, puzzle: Exclusion 2)” was tested, and the “apparent KD of MS2 coat protein” value (input ligand: FMN 200 uM) was 51 nM and the “apparent KD of MS2 coat protein” value (input ligand: none) was 21.8 nM.

With “CAGAGGAGACGGAGAUCCAACAUGAGGAUCACCCAUGUCUCAAAAGCUUUUUGCUUGUCUUAUCCUCCUCUCUUCAC [Mat - Sensor, turn-off var - Eli Mod - D59] (Eterna round: R97, puzzle: Sensor, turn-off variant 1)” the “apparent KD of MS2 coat protein” value (input ligand: FMN 200 uM) was 27.1 nM and the “apparent KD of MS2 coat protein” value (input ligand: none) was 28.1 nM.

For “CAGAUGGGUAACUACACCCACAUGAGGAUCACCCAUGUACACAUAGCUUACGCUCGUCUUAAGCGUGUUUUCGUAGC [Eternabot (L2) Solution 10] (Eterna round: R97, puzzle: Sensor, turn-off variant 1)”, the “apparent KD of MS2 coat protein” value (input ligand: FMN 200 uM) was 32 nM and the “apparent KD of MS2 coat protein” value (input ligand: none) was 33.4 nM.

With “CAGCCCUGAGGAUAUCCCUCCUUGUACAUGAGGAUCACCCAUGUUCUCCUCUGGGCUUUGGGAGAAGGCAGAUCUC [Megrez-6.9] (Eterna round: R97, puzzle: Exclusion 5)” the “apparent KD of MS2 coat protein” value (input ligand: FMN 200 uM) was 41.1 nM and the “apparent KD of MS2 coat protein” value (input ligand: none) was 46.5 nM.

“CAGCCUUGAGUUAGGAUAUGCGAUCGUGUAGACGAGCAGAAGGGACAUGAGGAUCACCCAUGUGAAAUAAUUAA [Begeti] (puzzle: Brourd's mod of Exclusion 4)” was tested, and the “apparent KD of MS2 coat protein” value [2] was 18.3 nM, the “apparent KD of MS2 coat protein” value [3] was 13.2 nM and the “apparent KD of MS2 coat protein” value [4] was 13.4 nM.

With “CAGCUGAAAGUCAGGAUAUCUAGAGCGAUAGCUCUAGAGAAGGGACAUGAGGAUCACCCAUGUGAUCACAGCUG [BmEx4/4-A4] (Eterna round: R97, puzzle: Brourd's mod of Exclusion 4)” the “apparent KD of MS2 coat protein” value (input ligand: FMN 200 uM) was 408 nM and the “apparent KD of MS2 coat protein” value (input ligand: none) was 1980 nM.

In the case of “CAGCUGAAAGUCAGGAUAUCUAGAGCUUCGGCUCUAGAGAAGGGACAUGAGGAUCACCCAUGUGAUUACAGCUG [BmEx4/6-A1] (Eterna round: R97, puzzle: Brourd's mod of Exclusion 4)”, the “apparent KD of MS2 coat protein” value (input ligand: FMN 200 uM) was 108 nM and the “apparent KD of MS2 coat protein” value (input ligand: none) was 60.6 nM.

For “CAGCUGAAAGUGAGGAUAUCUAGAGCUUCGGCUCUAGAGAAGGCACAUGAGGAUCACCCAUGUCUCAACAGCUG [BmEx4/1-A1] (Eterna round: R97, puzzle: Brourd's mod of Exclusion 4)”, the “apparent KD of MS2 coat protein” value (input ligand: FMN 200 uM) was 59.5 nM and the “apparent KD of MS2 coat protein” value (input ligand: none) was 16.9 nM.

For “CAGCUGAAAGUGAGGAUAUCUAGAGCUUCGGCUCUAGAGAAGGCACAUGAGGAUCACCCAUGUGAUCACAGCUG [BmEx4/7-A1] (Eterna round: R97, puzzle: Brourd's mod of Exclusion 4)”, the “apparent KD of MS2 coat protein” value (input ligand: FMN 200 uM) was 633 nM and the “apparent KD of MS2 coat protein” value (input ligand: none) was 356 nM.

With “CAGCUGAAUGUCAGGAUAUCUAGAGCUGCGGCUCUAGAGAAGGGACAUGAGGAUCACCCAUGUCACUCCAGCUG [BmEx4/3-B3] (Eterna round: R97, puzzle: Brourd's mod of Exclusion 4)” the “apparent KD of MS2 coat protein” value (input ligand: FMN 200 uM) was 21.3 nM and the “apparent KD of MS2 coat protein” value (input ligand: none) was 16.4 nM.

In the case of “CAGCUGAAUGUGAGGAUAUUACGAGCGAUAGCUCGUGAGAAGGCACAUGAGGAUCACCCAUGUCUCAACAGCUG [BmEx4/2-B4] (Eterna round: R97, puzzle: Brourd's mod of Exclusion 4)”, the “apparent KD of MS2 coat protein” value (input ligand: FMN 200 uM) was 552 nM and the “apparent KD of MS2 coat protein” value (input ligand: none) was 38.6 nM.

“CAGGACUGAGGAUAUGCGCGGACAAGAUCCUCAAUCCCAAAACAUGAGGAUCACCCAUGUAGAAGGCAGAAAUA [Edbein] (puzzle: Exclusion 2)” was tested, and the “apparent KD of MS2 coat protein” value [2] was 32.9 nM, the “apparent KD of MS2 coat protein” value [3] was 35.4 nM and the “apparent KD of MS2 coat protein” value [4] was 31 nM.

In the case of “CAGGACUUAGGAUAUCAUGUGCGAGACAUGAGGAUCACCCAUGUAGGAAGCCGUCGCGGGUGAGAAGGAGGGCGAU [Exclusion 5 S1] (puzzle: Exclusion 5)”, the “apparent KD of MS2 coat protein” value [2] was 266 nM, the “apparent KD of MS2 coat protein” value [3] was 277 nM and the “apparent KD of MS2 coat protein” value [4] was 366 nM.

In the case of “CAGGAUAGAGGAUAUACAUAGAUACAGAUUCGUGUAAUCCUACAUGAGGAUCACCCAUGUAGAAGGCUAUCCUG [Fiskers Ex 2 - 20] (puzzle: Exclusion 2)”, the “apparent KD of MS2 coat protein” value [3] was 13.2 nM.

With “CAGGAUAGAGGAUAUACAUAGAUACAGGUUCAUGUAAUCCUACAUGAGGAUCACCCAUGUAGAAGGCUAUCCUG [Fiskers Ex 2 - 19] (puzzle: Exclusion 2)” the “apparent KD of MS2 coat protein” value [3] was 14.8 nM.

“CAGGUUAGAGGAUAUACGUAGGUACAGAUCUGUGUGUUCCUACAUGAGGAUCACCCAUGUAGAAGGCUAUCCUG [LRO-Excl2-09] (puzzle: Exclusion 2)” was tested, and the “apparent KD of MS2 coat protein” value [3] was 61.9 nM.

“CAGUACAGAGGAUAUACAUGAGGAUCACCCAUGUGUAGCAGCUAGGAGACUAGCGCAUGUAGAAGGCUGUACUG [jl-ex3-4.31 salish99 mod] (Eterna round: R97, puzzle: Exclusion 3)” was tested, and the “apparent KD of MS2 coat protein” value (input ligand: FMN 200 uM) was 129 nM and the “apparent KD of MS2 coat protein” value (input ligand: none) was 21.3 nM.

In the case of “CAGUACAGAGGAUAUACAUGAGGAUCACCCAUGUGUUUCAGCAUCGAAAGAUGCGAAUGUAGAAGGCUGUACUG [jl-ex3-4.26 salish99 mod] (Eterna round: R97, puzzle: Exclusion 3)”, the “apparent KD of MS2 coat protein” value (input ligand: FMN 200 uM) was 313 nM and the “apparent KD of MS2 coat protein” value (input ligand: none) was 26.5 nM.

With “CAGUACAGAGGAUAUACAUGAGGAUCACCCAUGUGUUUCAGCUAGGAAACUAGCGAAUGUAGAAGGCUGUACUG [jl-ex3-4.24 salish99 mod] (Eterna round: R97, puzzle: Exclusion 3)” the “apparent KD of MS2 coat protein” value (input ligand: FMN 200 uM) was 178 nM and the “apparent KD of MS2 coat protein” value (input ligand: none) was 38.3 nM.
